Results on nine molecules are retold here after article PMC5489123 (Journal of molecular biology, 2010).

Experiment [1] has as its target T1, Tiam1 PDZ domain (Homo sapiens, UniProt Q13009). The experiment is described as follows: Fluorescence anisotropy binding assay of dansylated peptides. (In fluorescence polarisation assays a small probe gives low polarisation when free and higher when bound to something large.)
The target of experiment [2] is T1, Tiam1 PDZ domain. The experiment is described as follows: NMR chemical shift titration of N-acetylated peptides. The following applies: Kd (Model)/Kd (peptide); both Kd by NMR titration. It counts as binding.
Experiment [3] has as its target T2, Tiam1 PDZ domain (residues 841-930) (human, UniProt Q13009 841-930). The experiment is described as follows: fluorescence polarisation.
The target of experiment [4] is T2, Tiam1 PDZ domain (residues 841-930). Briefly: fluorescence polarisation. The source holds these as a separate data set.
For experiment [5] the target is unchanged. The experiment is described as follows: NMR titration.

Ends that are not written are not given here. * marks the point of attachment. Dansyl = CN(C)c1cccc2c(S(=O)(=O)*)cccc12

T2 sequence (Q13009 841-930): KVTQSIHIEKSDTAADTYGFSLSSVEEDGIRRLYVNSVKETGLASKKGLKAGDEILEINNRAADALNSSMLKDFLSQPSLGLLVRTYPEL
T1 sequence (Q13009 841-930): as above

As a reminder, the Kd is the equilibrium constant for the complex coming apart. For Ac-NKDKEYYV [Neurexin1], in experiment [1], the Kd was > 100 µM. Also, the “Fold versus Model” value in experiment [2] was 0.05.

Consider NKDKEYYV-OH (not fully specified (N-terminus)) [Neurexin-1 C-terminal peptide (residues 1470-1477), N-terminally dansylated], for which the Kd in experiment [3] is > 100 µM.

In experiment [4], Dansyl-ENQKEYFA [Caspr4(F→A) peptide, dansylated (dan-ENQKEYFA)] came in with a Kd of 64.8 ± 5.9 µM.

In the case of Dansyl-SSRKEYYA [Model Tiam1-binding peptide, N-terminally dansylated], the Kd in experiment [3] was > 100 µM.

As to Dansyl-TKQEEFYA [Syndecan1 C-terminal peptide (residues 303-310), N-terminally dansylated (dan-TKQEEFYA)], in experiment [4], the Kd turned out to be 26.9 ± 0.9 µM.

The molecule Dansyl-ENQKEYFF [Caspr4 C-terminal peptide (residues 1301-1308), N-terminally dansylated (dan-ENQKEYFF)] registered a Kd in experiment [4] of 16.8 ± 5.4 µM.

Take Ac-NKDKEYYV [Neurexin-1 C-terminal peptide (residues 1470-1477), N-terminally acetylated (Ac-NKDKEYYV)]: in experiment [5], the Kd was determined as 2400 ± 250 µM.

The molecule Ac-SSRKEYYA [Model Tiam1-binding peptide, N-terminally acetylated (Ac-SSRKEYYA)] had a Kd in experiment [5] of 112 ± 15 µM.

In experiment [4], Dansyl-TKQEEFYF [Syndecan1(A→F) peptide, dansylated (dan-TKQEEFYF)] registered a Kd of 55.7 ± 3.6 µM.
